Molecular target: Fn14-Fc fusion protein (murine Fn14 extracellular domain fused to the hinge and Fc of mouse IgG1, with myc and His tags) (murine)
Experiment: ELISA, plate coated with Fn14-Fc, serial dilutions of FLAG-tagged TWEAK

Sequence of Fn14-Fc fusion protein (murine Fn14 extracellular domain fused to the hinge and Fc of mouse IgG1, with myc and His tags) (murine) (chain, as listed by the source): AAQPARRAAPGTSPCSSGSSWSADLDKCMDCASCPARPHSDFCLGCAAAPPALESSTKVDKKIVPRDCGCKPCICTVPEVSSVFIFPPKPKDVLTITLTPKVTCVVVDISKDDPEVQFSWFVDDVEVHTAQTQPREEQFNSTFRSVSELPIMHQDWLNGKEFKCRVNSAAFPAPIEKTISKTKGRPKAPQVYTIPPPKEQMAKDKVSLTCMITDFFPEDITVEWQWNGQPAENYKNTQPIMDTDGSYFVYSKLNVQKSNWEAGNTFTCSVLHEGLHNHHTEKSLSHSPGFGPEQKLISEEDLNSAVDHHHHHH

Kd: 1.1 nM
Substance: FLAG epitope-tagged TWEAK (ligand)

— patent US7939490
